From publication PMC12062965, “Transposable Elements Drive Regulatory and Functional Innovation of F-box Genes” come the findings set out here.

The target in one data set is T1, GST-FBXA-215 FL (Caenorhabditis elegans, UniProt A0A8S4Q9N7 1-401).
T1 sequence: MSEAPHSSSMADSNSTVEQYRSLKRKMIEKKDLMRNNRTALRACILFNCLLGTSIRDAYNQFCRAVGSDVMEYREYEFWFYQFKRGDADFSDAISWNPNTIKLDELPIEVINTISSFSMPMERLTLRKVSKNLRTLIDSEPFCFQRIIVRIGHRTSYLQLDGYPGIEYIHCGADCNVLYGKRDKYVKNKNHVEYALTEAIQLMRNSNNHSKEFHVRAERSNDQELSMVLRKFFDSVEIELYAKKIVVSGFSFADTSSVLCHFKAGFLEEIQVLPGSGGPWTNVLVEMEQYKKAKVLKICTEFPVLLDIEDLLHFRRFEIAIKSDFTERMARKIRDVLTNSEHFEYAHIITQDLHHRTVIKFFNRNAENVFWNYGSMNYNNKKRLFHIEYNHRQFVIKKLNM
Put plainly: EMSA; 50 mM Tris-HCl pH 7.5, 150 mM NaCl, 1 mM DTT, protease inhibitors, 2.5% glycerol, 77.3 nM DNA, 25 C 15 min; native 1.5% agarose gel in TBE at 4 C, SYBR Gold stain. The note with it: protein: recombinant; tags: N-terminal GST; blunt. Background: Mobility shift assays separate free from complexed probe on a gel.

A further data set concerns the target T2, GST-FBXA-192 FL (Caenorhabditis elegans, UniProt Q9XUX2 1-401).
T2 sequence: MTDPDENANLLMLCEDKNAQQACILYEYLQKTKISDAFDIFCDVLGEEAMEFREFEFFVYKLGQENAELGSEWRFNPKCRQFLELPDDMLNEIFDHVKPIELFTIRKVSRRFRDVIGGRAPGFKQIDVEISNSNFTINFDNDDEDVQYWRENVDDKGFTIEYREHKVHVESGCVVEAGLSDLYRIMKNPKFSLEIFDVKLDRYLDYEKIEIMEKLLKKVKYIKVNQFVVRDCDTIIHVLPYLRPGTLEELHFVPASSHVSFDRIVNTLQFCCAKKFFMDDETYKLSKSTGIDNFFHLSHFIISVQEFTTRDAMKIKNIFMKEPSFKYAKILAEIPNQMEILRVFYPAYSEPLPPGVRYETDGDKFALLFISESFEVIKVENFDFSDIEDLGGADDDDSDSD
The description is as above. The note with it: protein: recombinant; tags: N-terminal GST; blunt.

B1: Mos1 right TIR (IRR100) (dsDNA)
DNA 1: TTTCTTTTTCCACAAAATTTAACGTGTTTTTTGATTTAAAAAAAACGACATTTCATACTTGTACACCTGA
DNA 2: TCAGGTGTACAAGTATGAAATGTCGTTTTTTTTAAATCAAAAAACACGTTAAATTTTGTGGAAAAAGAAA
For B1, the binding result in the data set with GST-FBXA-215 FL and in the data set with GST-FBXA-192 FL was “no binding” each time.
